Source: the supplement of paper PMC9170038

Tested on: K4 kissing-loop RNA reporter
Assay: apparent KD of K4 kissing-loop reporter; higher = weaker reporter binding
Details: Eterna round: R107
Method: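 RNA-MaP round R107: designed RNA switches with theophylline, tryptophan, arginine or FMN aptamers are transcribed on-chip within common flanks. They are titrated with a labelled K4 kissing-loop RNA reporter in RNA-MaP buffer (100 mM Tris pH 7.5, 80 mM KCl, 4 mM MgCl2), without ligand or with the indicated ligand. Median apparent KD per design.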

[1] = input ligand: theophylline 20 uM
[2] = input ligand: tryptophan 2.4 mM
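Note: bound reporter read as fluorescence of individual clusters on recovered sequencing chips by microscopy, with normalized cluster intensities fitted with a binding model.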

Row | Sequence | apparent KD of K4 kissing-loop reporter (input ligand: FMN 200 uM) | apparent KD of K4 kissing-loop reporter (input ligand: arginine 13.2 mM) | apparent KD of K4 kissing-loop reporter (input ligand: none) | apparent KD of K4 kissing-loop reporter [1] | apparent KD of K4 kissing-loop reporter [2]
1 | CACCUAGGUACGGCCGCCACUAGAAGUGAUGUUUCGUCUGGUUCCGCAUUACGUGUACUUUCUUAUAGGACCGGGUAGCAAAUAG [theeternabot_exclusion_KL_Trp_B_3] | 548 nM | 288 nM | 563 nM | 258 nM | 311 nM
2 | CACCUGCCAUAAGGAUAUUCGUCUUUGCGCUUCCAGUGAUGUUGGAGAUCGCAACACAUGGUCAUAGAAGAAGGUAUGGUAUUAA [theeternabot_sameState_KL_FMN_B_35] | 154 nM | 186 nM | 195 nM | 191 nM | 186 nM
3 | CACUUACGUAGUGAUGUUACGAUCUCUGAUACCAGACAACUCUAAGUCCCUUGGCAGCAGUCAUUUUGCUUAUAAUUUACUCAAA [JR_ExcTheophyA_Sub015] | 657 nM | 556 nM | 786 nM | 646 nM | 508 nM
4 | CAUACGCAUGGAGGAUAUGAGAUUUCUCAUAUUAUUGCUUAUUCUCAGUGAUGUUGGGAUUUAAGCUCAGAAGGCCAUGUGUAUG [Ex FMN B 10] | 187 nM | 88.4 nM | 98 nM | 94.2 nM | 85.8 nM
5 | CAUAGACAAGUGAUGUUUGUCAUAACCGAAGGAGCGUCUUUAAAGACAGGUAGGUCGCGGAUUAAUUAAGUUAUGAUUCUUUUUA [JR_SSArginiA_Sub017] | 630 nM | 572 nM | 661 nM | 642 nM | 531 nM
6 | CAUAGGAAACUAUGUUUCUCUCUUACUGAAGGAGCGCGUGAAAACGCAGGUAGGUCGCAGAUUUUGAGAGUGAUGUUCUCAAUAA [Ex Arginine A K4 18] | 128 nM | 167 nM | 139 nM | 155 nM | 91.7 nM
7 | CAUAGUCACUGUGAUACCAGCCCGACUCUUGGCGUCUGCGGUCAAAGCCCAGUGAUGUUGGGCCCUUGGCAGCAUGGCGGCAACA [Xelexebi] | 136 nM | 114 nM | 132 nM | 112 nM | 120 nM
8 | CAUUCAGUGAUGUUGGAAGGCGAGCGGGAUACCAGCGGAGACUCACGCCCUUGGCAGCCCAUAUAUCCCAGGUAGAUAAUAGUUC [Same State - Theophylline A (Freestyle 5)] | 276 nM | 117 nM | 217 nM | 219 nM | 201 nM
9 | CCAAACAGUUACGAUACCAGUCUAAUAUAUUUGAUCAAAACCCUCGCCGAGUGAUGUUCGGACCCUUGGCAGCGUCUGGGACAGG [zzbtmullin] | 479 nM | 378 nM | 500 nM | 414 nM | 371 nM
10 | CCAACAACGAGUGAUGUUCGUUGAUCAGAAGGAGCGUCAAUAAUGACAGGUAGGUCGCUGAUAAUUGGAAAUAGGGCAAUAGCUU [Same State Arginine A GF12] | 110 nM | 113 nM | 115 nM | 120 nM | 105 nM
11 | CCAGUGAUAAACGAUACCAGAAAUACCUUAUUUGGCCGGCGGAGUGAUGUUCCUAAUACUUUCCCUUGGCAGCGUCGAAUGCUAG [theeternabot_sameState_KL_Theo_B_16] | 43.8 nM | 61.1 nM | 46 nM | 99 nM | 42.3 nM
12 | CCAUCGCUAUUCGAUACCAGCUACUUAGUGAUGUUAAGUUAAAAUCAAUUGUAGAUUGAAAGCCCUUGGCAGCGAAUAGUGAUGG [Theophylline B K4 21] | 157 nM | 123 nM | 139 nM | 83.8 nM | 135 nM
13 | CCAUCGCUAUUCGAUACCAGCUCCUUAGUGAUGUUAAGGUUUUACCCACUGUAGGUGGGAAGCCCUUGGCAGCGAAUAGUGAUGG [Theophylline B K4 28] | 982 nM | 872 nM | 1150 nM | 538 nM | 1030 nM
14 | CCAUCGCUAUUCGAUACCAGUCAAAAUAAAAUAAUAAAUCUGCAAAGGAGUGAUGUUCCAGACCCUUGGCAGCGAAUAGUGAUGG [Theophylline B K4 2] | 746 nM | 552 nM | 834 nM | 709 nM | 723 nM
15 | CCAUCGCUAUUCGAUACCAGUCAUCAAAUCUUUGGUUUGAUAAAGGAGUGAUGUUCCCAAGACCCUUGGCAGCGAAUAGUGAUGG [Theophylline B K4 10] | 252 nM | 212 nM | 224 nM | 175 nM | 230 nM
16 | CCAUUCUUUUACGAUACCAGUUUUAUUUAGUUAUUCAUAACCCUUGCCGAGUGAUGUUCGGACCCUUGGCAGCGUUUGCGAGAGG [zaadvmullin] | 286 nM | 299 nM | 355 nM | 411 nM | 272 nM

Row | Sequence | apparent KD of K4 kissing-loop reporter (input ligand: FMN 200 uM) | apparent KD of K4 kissing-loop reporter (input ligand: arginine 13.2 mM) | apparent KD of K4 kissing-loop reporter (input ligand: none) | apparent KD of K4 kissing-loop reporter [1] | apparent KD of K4 kissing-loop reporter [2]
17 | CCGACUGCAGGAAGGAGCGGCGGUUGGAGUGAUGUUCCAGGUAGUGAUGUUACCAAGAUCCGCCAGGUAGGUCGCCUGUUGCUCA [Same State Arginie B GF 12] | 156 nM | 106 nM | 115 nM | 148 nM | 125 nM
18 | CCGCCAUCGUCAGAUACCAGGCUGAUGGCGGUAACCGCCAAGCGAGUGAUGUUCGCAUCAGUCCCUUGGCAGCUGACGAAGACUG [#16 K4 Theophylline B Same State] | 176 nM | 86.9 nM | 190 nM | 283 nM | 133 nM
19 | CCGGGCGGCUGAAGGAGCGGGCGGGCCCGAGUGAUGUUCGGGUGGACCGUGAGGUCCGGUGCCCAGGUAGGUCGCGGUUCCGCCC [#2 Same State - Arginine B Attempt #8 (HarryS)] | 247 nM | 183 nM | 162 nM | 296 nM | 238 nM
20 | CCGUCGACAAGCGCCAUCGUCUACGUCAAUAAGGAUAUCAUCAAGGUGAGAAGGUAUGACAACCGGAGUGAUGUUCCAGGGCGAA [theeternabot_sameState_KL_FMN_A_5] | 506 nM | 362 nM | 368 nM | 304 nM | 346 nM
21 | CCUAUCUCAUACGAUACCAGUCCGAGUGAUGUUCGAACAGGUUUUAGUUUGCCAUAUAAUGACCCUUGGCAGCGUAUGGGAUAGG [Ex Theophylline B K4 13] | 167 nM | 123 nM | 163 nM | 130 nM | 137 nM
22 | CCUGCAGCUGUUACCGAGGGAUGCUACGGACGAGGACCGGUACGGCCGCCACUCGCCAGUGAUGUUGGUGAGGGAGGACGUUACU [KL-XTryp-A21] | 137 nM | 107 nM | 109 nM | 103 nM | 107 nM
23 | CCUGUGUGUGAAGGAUAUAUUUCGCAUUAAAACUAGUGAUGUUGGUAAAUGGCACAAUCCGUAGCAAUAGAAGGUCACUCCGGAA [theeternabot_sameState_KL_FMN_B_22] | 499 nM | 445 nM | 793 nM | 498 nM | 524 nM
24 | CCUUCCUAAAACGAUACCAGUUUCUAUCCUCAAUCCAGUGAUGUUGAAUUGAGCUCACAGAACCCUUGGCAGCGUCGCUAUACGG [theeternabot_sameState_KL_Theo_B_39] | 214 nM | 202 nM | 195 nM | 180 nM | 190 nM
25 | CCUUCUCUUGAUAGUGAUGUUAUCAAGGGCAAGGAUAUCAUCUUAAUGAGAAGGUGUCCUUGAUAACAUGGAGGUCUGAAACAGA [Omei KL FMN A Exc C v5] | 108 nM | 186 nM | 229 nM | 321 nM | 335 nM
26 | CGACACUCAGCGGCCGCCACUGAGCUAUAUUUUGCAGGUGCCCGAGUAAGUGAUGUUUACUUCGUCAGGACCGGGCUGGUUUCAA [theeternabot_sameState_KL_Trp_B_20] | 514 nM | 298 nM | 609 nM | 294 nM | 351 nM
27 | CGAGUGAUGUUCGAAGAGUUGUUAAGCGAUACCAGCUAGGAAACUGGCCCUUGGCAGCGUAAUAAGUAAAUAAAUAAAUGAUCAC [whbob_Ex_Theo_A_th63] | 287 nM | 399 nM | 442 nM | 486 nM | 337 nM
28 | CGAGUGAUGUUCGAAGAGUUGUUAAGCGAUACCAGCUAGGAGACUGGCCCUUGGCAGCGUAAUAAGUUAAUAAAUAAAUGAUCAC [whbob_Ex_Theo_A_th65] | 293 nM | 384 nM | 360 nM | 506 nM | 285 nM
29 | CGAGUGAUGUUCGUUCGUUUAUUUCUUUGACAGGAUAUGCGGAAACGCAGAAGGGUCACCUUUGAGUUAAAGGAAUUUACGUUAU [Ex FMN A 26] | 572 nM | 509 nM | 599 nM | 539 nM | 483 nM
30 | CGAGUGAUGUUCGUUUUAAAAUUUUUUUGACAGGAUAUGCGGAAACGCAGAAGGGUCACCUUUGAGUUAAAAGAAAUUAAAUUUU [Ex FMN 16] | 175 nM | 223 nM | 198 nM | 224 nM | 166 nM
31 | CGAUGGAUGGCAGGAUAUAGACAUUGAGUGAUGUUCGAUGAUUAUCCAUAUUCCCGUCACCUAUGACUAGAAGGGCCAUCCAUCG | 236 nM | 485 nM | 464 nM | 587 nM | 577 nM
